Common to all, as to assay: ITC; 5 mM RRESEI in the syringe, PDZ1-2, PDZ1 or PDZ2 in the cell at nominal 0.13 mM; 25°C; 20 mM Tris-HCl, 150 mM NaCl, pH8.5; MicroCal VP-ITC; PDZ1-2 fitted assuming a single class of sites
What all share (settings): both partners purified
For orientation: In ITC the heat of successive injections is recorded.

Assay [1] has as its target T1, PSD-95 PDZ2 domain (residues 154-249) (human, UniProt P78352 154-249).
T1 construct: Gly-Pro left at the N-terminus after HRV 3C cleavage of the tag; PSD-95, human, PDZ2, residues 154-249 of UniProt P78352 [197-292 of P78352-2]; Vector pOPINF; source: E. coli BL21(DE3), purified (Ni-NTA, HRV 3C tag cleavage, negative Ni-NTA, Superdex200 SEC); not shown: His6, N-terminal, cleaved

The target in assay [2] is T2, PSD-95 PDZ1 domain (residues 55-152) (human, UniProt P78352 55-152).
T2 construct: Gly-Pro left at the N-terminus after HRV 3C cleavage of the tag; PSD-95, human, PDZ1, residues 55-152 of UniProt P78352 [98-195 of P78352-2]; Vector pOPINF; source: E. coli BL21(DE3), purified (Ni-NTA, HRV 3C tag cleavage, negative Ni-NTA, Superdex200 SEC); not shown: His6, N-terminal, cleaved
T2 sequence (P78352 other isoform, or with tags, fused parts or gaps): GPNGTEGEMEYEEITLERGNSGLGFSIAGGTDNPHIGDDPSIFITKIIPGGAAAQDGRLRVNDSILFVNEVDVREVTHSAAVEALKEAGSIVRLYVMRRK

Assay [3] addresses T3, PSD-95 PDZ1-2 dual domain (residues 55-249) (human, UniProt P78352 55-249).
T3 construct: PSD-95 (Disks large homologue 4, SAP-90), human, residues 55-249 of UniProt P78352 [98-292 of P78352-2]; PDZ1, 8-residue linker, PDZ2; cleaved construct 20.8 kDa; ends printed as NGT- and -SNA; Vector pOPINF; SASBDB entries: apo SASDGE5, SASDGF5, SASDGG5; with GSH SASDGH5, SASDGJ5, SASDGK5; also called apo:PDZ1-2; dual PDZ domain; source: E. coli BL21(DE3), purified (Ni-NTA, HRV 3C tag cleavage, …)

T1 sequence (P78352 other isoform, or with tags, fused parts or gaps): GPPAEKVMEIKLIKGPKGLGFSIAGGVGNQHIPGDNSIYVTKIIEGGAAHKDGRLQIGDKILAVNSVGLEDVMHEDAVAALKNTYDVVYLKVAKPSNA
T3 sequence (P78352 other isoform, or with tags, fused parts or gaps): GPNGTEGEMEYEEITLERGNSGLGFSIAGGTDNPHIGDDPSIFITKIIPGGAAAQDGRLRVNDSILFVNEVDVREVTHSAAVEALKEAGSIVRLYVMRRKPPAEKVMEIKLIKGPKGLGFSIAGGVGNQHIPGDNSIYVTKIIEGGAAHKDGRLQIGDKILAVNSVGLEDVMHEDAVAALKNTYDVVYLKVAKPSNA

B1: RRESEI peptide (last 6 residues of Kir2.1) (peptide)
peptide: RRESEI
notes: last 6 residues of the inwardly rectifying potassium channel Kir2.1 (C-terminus, type I PDZ motif ESEI); also called RRESEI ligand; ligand peptide; source: synthetic peptide, 98% purity (Peptide Protein Research Ltd.)
B1: the Kd – broadly, the concentration at which binding is half-saturated – in assay [1] was found to be 60 ± 2 µM; in assay [2], 6 ± 6 µM; in assay [3] it was 90 ± 9 µM.

Source of the values: doi:10.1101/775726, “How the dual PDZ domain from Postsynaptic density protein 95 clusters ion channels and receptors” (bioRxiv, 2019).
